Test results reported in the supplement of paper PMC12783771.
± gives the standard deviation of the averaged measurements.

B1: library; numbered along this chain (parent)
chain: MNIQIGELAKRTACPVVTIRFYEQEGLLPPPGRSRGNFRLYGEEHVERLQFIRHCRSLDMPLSDVRTLLSYRKRPDQDCGEVNMLLDEHIRQVESRIGALLELKHHLVELREACSGARPAQSCGILQGLSDCVCDTRGTTAHPSD

Experiments:
[1] = variants of: B1; experiment: sfGFP reporter fluorescence (15 h) (µM FITC); higher = higher leak; conditions: library round: Round 0; ligand: none
Method in brief: (§1)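 An Echo normalized PCR-made linear PbrR templates to 5 nM and assembled 1 μL reactions in BL21 Star (DE3) PANOx-SP extract carrying the pPbrR-sfGFP reporter plasmid and 30 μg/mL GamS. Reactions received 1 µM lead chloride, 30 µM zinc acetate or no metal and stood 15 hr at 30 °C. Fluorescence at 485/528 nm (Synergy Neo2) was converted with FITC standard curves made in 50 mM sodium borate pH 8.5. Endpoint sfGFP signal is given in µM FITC, from up to three biological replicates.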

[2] = variants of: B1; experiment: sfGFP reporter fluorescence (15 h) (µM FITC); higher = stronger transcriptional activation; conditions: library round: Round 0
Method in brief: as §1

Variant | sfGFP reporter fluorescence [1] | sfGFP reporter fluorescence ([2]; ligand: 1 µM Pb) | sfGFP reporter fluorescence ([2]; ligand: 30 µM Zn)
D131S | 0.0618 ± 0.0034 | 0.1033 ± 0.00052 | 0.962 ± 0.087
L110H | 0.0638 ± 0.0021 | 0.081 ± 0.0042 | 2.52 ± 0.29
L110G | 0.05498 ± 0.00052 | 0.0548 ± 0.00078 | 0.0531 ± 0.0031
G128F | 0.0671 ± 0.0047 | 0.199 ± 0.023 | 1.2 ± 0.12
G128Q | 0.06982 ± 0.00026 | 0.117 ± 0.0026 | 2.05 ± 0.43
G128A | 0.09694 ± 0.00026 | 0.211 ± 0.0065 | 2.53 ± 0.17
G128T | 0.0647 ± 0.0018 | 0.0885 ± 0.014 | 1.21 ± 0.22
L107C | 0.491 ± 0.053 | 1.05 ± 0.062 | 2.85 ± 0.46
L107F | 0.0528 ± 0.0015 | 0.0495 ± 0.0021 | 0.0636 ± 0.0039
L107M | 0.0546 ± 0.0015 | 0.0605 ± 0.0026 | 0.371 ± 0.046
L107T | 0.0797 ± 0.0054 | 0.282 ± 0.015 | 1.93 ± 0.22
L107R | 0.059 ± 0.001 | 0.055 ± 0.0021 | 0.0781 ± 0.0031
P61N D64K L107C G128I | 3.28 ± 0.15 | 4.88 ± 0.7 | 4.54 ± 0.044
D78A | 0.0713 ± 0.0065 | 0.0689 ± 0.0021 | 0.1 ± 0.0026
I90Y | 0.0608 ± 0.0026 | 0.108 ± 0.0023 | 0.9855 ± 0.0052
I90S | 0.0601 ± 0.0031 | 0.0671 ± 0.0036 | 0.384 ± 0.0091
I90K | 0.0621 ± 0.0023 | 0.099 ± 0.0047 | 0.85 ± 0.061
L62N | 0.061 ± 0.00078 | 0.0632 ± 0.00078 | 0.08008 ± 0.00026
L62Y | 0.0599 ± 0.0023 | 0.0623 ± 0.00052 | 0.0748 ± 0.0057
L62A | 0.06469 ± 0.00026 | 0.0634 ± 0.0031 | 0.0839 ± 0.0062
D135L | 0.059 | 0.0898 ± 0.0026 | 1.55 ± 0.24
D135G | 0.0531 | 0.0764 ± 0.0023 | 0.802 ± 0.074
D135F | 0.0718 ± 0.001 | 0.138 ± 0.0065 | 1.49 ± 0.28

Variant | sfGFP reporter fluorescence [1] | sfGFP reporter fluorescence ([2]; ligand: 1 µM Pb) | sfGFP reporter fluorescence ([2]; ligand: 30 µM Zn)
D64K K104V L107C G128I | 2.19 ± 0.12 | 4.16 ± 0.23 | 3.35 ± 0.64
Y71A | 0.05974 ± 0.00052 | 0.0575 | 0.22 ± 0.0036
E7K | 0.0662 ± 0.00078 | 0.113 ± 0.0023 | 1.99 ± 0.1
E7Q | 0.0605 | 0.0891 ± 0.0026 | 1.18 ± 0.057
E7W | 0.0608 ± 0.0015 | 0.06359 ± 0.00026 | 0.19 ± 0.0023
E7N | 0.05919 ± 0.00026 | 0.088 ± 0.0047 | 0.858 ± 0.081
E7Y | 0.06249 ± 0.00026 | 0.06542 ± 0.00026 | 0.2223 ± 0.00026
H106A | 0.0596 ± 0.0034 | 0.0667 ± 0.00052 | 0.213 ± 0.02
L85W | 0.0618 ± 0.0018 | 0.0597 ± 0.0036 | 0.157 ± 0.013
L85N | 0.0564 ± 0.0021 | 0.0575 ± 0.0015 | 0.0612 ± 0.0015
L85A | 0.05864 ± 0.00052 | 0.0559 ± 0.0023 | 0.07183 ± 0.00052
V82C | 0.05956 ± 0.00026 | 0.0588 ± 0.00078 | 0.0898 ± 0.0042
F21M | 0.0599 ± 0.0013 | 0.0619 ± 0.0021 | 0.09 ± 0.0086
F21R | 0.0645 | 0.06212 ± 0.00026 | 0.0685 ± 0.0021
F21W | 0.0702 ± 0.0013 | 0.124 ± 0.0031 | 0.945 ± 0.029
F21C | 0.0599 ± 0.0029 | 0.0597 | 0.0583 ± 0.001
P61H | 0.0658 ± 0.00078 | 0.117 ± 0.0021 | 0.797 ± 0.015
P61K | 0.068 ± 0.00078 | 0.107 ± 0.0031 | 1.6 ± 0.1
M60L L107C G128M | 4.479 ± 0.028 | 4.98 ± 0.62 | 5.22 ± 0.29
K104H | 0.0762 ± 0.0036 | 0.189 ± 0.081 | 1.56 ± 0.38
K104E | 0.0552 ± 0.0086 | 0.0691 ± 0.015 | 0.635 ± 0.12
K104L | 0.0592 ± 0.0049 | 0.135 ± 0.03 | 1.11 ± 0.054
L27A | 0.0632 ± 0.00078 | 0.05827 ± 0.00052 | 0.0733

Variant | sfGFP reporter fluorescence [1] | sfGFP reporter fluorescence ([2]; ligand: 1 µM Pb) | sfGFP reporter fluorescence ([2]; ligand: 30 µM Zn)
L27K | 0.064 ± 0.0013 | 0.06084 ± 0.00052 | 0.0614 ± 0.0018
L27R | 0.0656 ± 0.0026 | 0.0658 ± 0.0013 | 0.0665 ± 0.00078
Y41W | 0.0586 | 0.0658 ± 0.0029 | 0.1977 ± 0.00078
Y41A | 0.0616 ± 0.0042 | 0.0605 | 0.0651 ± 0.0013
Y41D | 0.0601 ± 0.001 | 0.0607 ± 0.00078 | 0.0621 ± 0.0023
Y41S | 0.0603 ± 0.00078 | 0.0612 ± 0.0021 | 0.0616 ± 0.0015
I97Y | 0.0603 ± 0.0034 | 0.0825 ± 0.0026 | 0.721 ± 0.031
C55G | 0.0568 ± 0.0015 | 0.057 ± 0.00078 | 0.07 ± 0.0015
C55W | 0.0731 ± 0.0029 | 0.0935 ± 0.0015 | 0.136 ± 0.0083
C55T | 0.0577 ± 0.00078 | 0.0594 ± 0.0042 | 0.129 ± 0.0018
C55N | 0.0594 ± 0.0015 | 0.0583 ± 0.0015 | 0.057 ± 0.0034
M60L D64K G128M | 3.44 ± 0.06 | 4.33 ± 0.25 | 4.46 ± 0.12
C134L | 0.0673 ± 0.00078 | 0.113 ± 0.012 | 1.3 ± 0.054
C134V | 0.0667 ± 0.00052 | 0.0894 ± 0.0047 | 1.13 ± 0.25
C134K | 0.0742 ± 0.00078 | 0.0891 ± 0.0021 | 1.71 ± 0.084
C134A | 0.0652 ± 0.001 | 0.0821 ± 0.0052 | 0.59 ± 0.049
E47A | 0.0612 | 0.0779 ± 0.0049 | 0.791 ± 0.039
L68H | 0.0623 ± 0.0026 | 0.0577 ± 0.0013 | 0.0795 ± 0.0015
L68K | 0.0608 ± 0.0021 | 0.0566 ± 0.0013 | 0.0638 ± 0.0036
L68F | 0.07935 ± 0.00078 | 0.166 ± 0.0029 | 1.42 ± 0.11
L68Q | 0.0603 ± 0.00078 | 0.05736 ± 0.00026 | 0.0629 ± 0.0018
L107C G128I | 1.34 ± 0.036 | 3.12 ± 0.11 | 4.14 ± 0.064
G80A | 0.0577 ± 0.0029 | 0.0649 ± 0.0073 | 0.526 ± 0.039

Variant | sfGFP reporter fluorescence [1] | sfGFP reporter fluorescence ([2]; ligand: 1 µM Pb) | sfGFP reporter fluorescence ([2]; ligand: 30 µM Zn)
M60L P61N K104V G128M | 0.547 ± 0.013 | 1.69 ± 0.41 | 3.84 ± 0.1
V17A | 0.0568 ± 0.001 | 0.0566 ± 0.0013 | 0.622 ± 0.11
H89T | 0.0614 ± 0.00078 | 0.0579 ± 0.0021 | 0.0588 ± 0.0054
H89K | 0.0601 ± 0.0026 | 0.0599 ± 0.0013 | 0.161 ± 0.0036
H89L | 0.059 ± 0.0026 | 0.0553 ± 0.0021 | 0.0649 ± 0.0042
H89G | 0.0559 ± 0.0044 | 0.05443 ± 0.00026 | 0.0577 ± 0.0023
H89M | 0.061 ± 0.0013 | 0.06359 ± 0.00026 | 0.1426 ± 0.00052
M60L P61N | 0.25 ± 0.0062 | 1.01 ± 0.48 | 3.5 ± 0.044
T140A | 0.0614 ± 0.0013 | 0.0726 ± 0.0015 | 0.5 ± 0.039
P61N L107C G128M | 3.31 ± 0.13 | 4.37 ± 0.48 | 5.17 ± 0.11
R20Q | 0.06212 ± 0.00026 | 0.0607 ± 0.00078 | 0.074 ± 0.0031
E109Q | 0.0601 | 0.0823 ± 0.0034 | 1.08 ± 0.25
E109P | 0.0662 ± 0.0023 | 0.155 ± 0.011 | 1.45 ± 0.11
E109L | 0.0586 ± 0.001 | 0.0907 ± 0.0029 | 1.12 ± 0.12
C123V | 0.05589 ± 0.00026 | 0.0579 ± 0.0015 | 0.0541 ± 0.0018
C123S | 0.0575 ± 0.0021 | 0.0575 ± 0.001 | 0.0552 ± 0.0018
C123E | 0.0583 ± 0.001 | 0.0588 ± 0.00078 | 0.0557 ± 0.001
C123F | 0.0564 ± 0.0015 | 0.0577 ± 0.00078 | 0.0528 ± 0.0015
M84A | 0.0618 ± 0.0029 | 0.0687 ± 0.0029 | 0.807 ± 0.02
D64W | 0.0815 ± 0.0029 | 0.167 ± 0.0052 | 1.64 ± 0.044
